Test [1] concerns the target T1, DLL4 (DLL ECD His tag, R&D 1506-D4-050) (UniProt Q9NR61 27-529).
T1 construct: extracellular domain; bought
Briefly: BIACORE (SPR), DVD-Ig against DLL4.

Test [2] addresses VEGF (VEGF 1-165 aa, R&D Systems 293-VE-010) (UniProt P15692 27-191). Briefly: Direct bind ELISA, VEGF coated on plate.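 Note: ELISA screening of antibodies for binding to the plate-coated target antigen.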 On the technique in general: ELISA stands for enzyme-linked immunosorbent assay.

VEGF (VEGF 1-165 aa, R&D Systems 293-VE-010), sequence (P15692 other isoform, or with tags, fused parts or gaps limits assumed): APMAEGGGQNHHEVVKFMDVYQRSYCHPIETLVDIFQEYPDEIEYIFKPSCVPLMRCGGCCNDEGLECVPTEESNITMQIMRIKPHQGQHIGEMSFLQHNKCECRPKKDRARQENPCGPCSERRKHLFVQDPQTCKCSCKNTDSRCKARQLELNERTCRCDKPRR

B1: DVD497 (bispecific antibody, human IgG1, kappa)
heavy: not shown
light: DIQMTQSSSYLSVSLGGRVTITCKASDHINNWLAWYQQKPGNAPRLLISGATSLETGVPSRFSGSGSGKDYTLSITSLQTEDVATYYCQQYWSIPLTFGAGTKLELKRTVAAPSVFIFPPDIQMTQSPSSLSASVGDRVTITCRASQVIRRSLAWYQQKPGKAPKLLIYAASNLASGVPSRFSGSGSGTDFTLTISSLQPEDFATYYCQQSNTSPLTFGQGTKVEIKRTVAAPSVFIFPPSDEQLKSGTASVVCLLNNFYPREAKVQWKVDNALQSGNSQESVTEQDSKDSTYSLSSTLTLSKADYEKHKVYACEVTHQGLSSPVTKSFNRGEC
notes: DVD-Ig; N-term; VD DLL4 (AB072), C-term; VD VEGF (AB071); HC linker long, LC linker long; also called DVD-Ig DVD497; DVD497H
Broadly, the Kd is the concentration at which binding is half-saturated. High values mean a looser complex, low ones a tighter complex. The koff is the rate constant with which the complex falls apart. Low values mean a long-lived complex, high ones a short-lived complex. Usually kon stands for the second-order rate constant of association. In test [1], B1 yielded a Kd of 0.266 nM, a koff of 7.12e-05 s⁻¹ and a kon of 268000 M⁻¹ s⁻¹.

B2: DVD509 (bispecific antibody, human IgG1, kappa)
heavy: not shown
light: DIQMTQSSSYLSVSLGGRVTITCKASDHINNWLAWYQQKPGNAPRLLISGATSLETGVPSRFSGSGSGKDYTLSITSLQTEDVATYYCQQYWSIPLTFGAGTKLELKRTVAAPSVFIFPPDIQMTQSPSSLSASVGDRVTITCRASQVIRRSLAWYQQKPGKAPKLLIYAASNLASGVPSRFSGSGSGTDFTLTISSLQPEDFATYYCQQSNTSPLTFGQGTKVEIKRTVAAPSVFIFPPSDEQLKSGTASVVCLLNNFYPREAKVQWKVDNALQSGNSQESVTEQDSKDSTYSLSSTLTLSKADYEKHKVYACEVTHQGLSSPVTKSFNRGEC
notes: DVD-Ig; N-term; VD DLL4 (AB072), C-term; VD VEGF (AB071); HC linker short, LC linker long; also called DVD-Ig DVD509; DVD509H
As for B2, in test [1], the Kd is 0.153 nM, the koff turned out to be 3.52e-05 s⁻¹ and the kon amounted to 230000 M⁻¹ s⁻¹.

B3: DVD503 (bispecific antibody, human IgG1, kappa)
heavy: not shown
light: DIQMTQSSSYLSVSLGGRVTITCKASDHINNWLAWYQQKPGNAPRLLISGATSLETGVPSRFSGSGSGKDYTLSITSLQTEDVATYYCQQYWSIPLTFGAGTKLELKRTVAAPDIQMTQSPSSLSASVGDRVTITCRASQVIRRSLAWYQQKPGKAPKLLIYAASNLASGVPSRFSGSGSGTDFTLTISSLQPEDFATYYCQQSNTSPLTFGQGTKVEIKRTVAAPSVFIFPPSDEQLKSGTASVVCLLNNFYPREAKVQWKVDNALQSGNSQESVTEQDSKDSTYSLSSTLTLSKADYEKHKVYACEVTHQGLSSPVTKSFNRGEC
notes: DVD-Ig; N-term; VD DLL4 (AB072), C-term; VD VEGF (AB071); HC linker long, LC linker short; also called DVD-Ig DVD503; DVD503H
Consider B3, for which, in test [1], the Kd turned out to be 0.192 nM, the koff came to 4.72e-05 s⁻¹ and the kon worked out at 246000 M⁻¹ s⁻¹.

B4: DVD474 (bispecific antibody, IgG1)
VH: EVQLVESGGGLVQPGGSLRLSCAASGFTINASWIHWVRQAPGKGLEWVGAIYPYSGYTNYADSVKGRFTISADTSKNTAYLQMNSLRAEDTAVYYCARWGHSTSPWAMDYWGQGTLVTVSSASTKGPSVFPLAPEVQLVESGGGLVQPGGSLRLSCAASGFTFTDNWISWVRQAPGKGLEWVGYISPNSGFTYYADSVKGRFTISADTSKNTAYLQMNSLRAEDTAVYYCARDNFGGYFDYWGQGTLVTVSS
VL: DIQMTQSPSSLSASVGDRVTITCRASQVIRRSLAWYQQKPGKAPKLLIYAASNLASGVPSRFSGSGSGTDFTLTISSLQPEDFATYYCQQSNTSPLTFGQGTKVEIKRTVAAPSVFIFPPDIQMTQSPSSLSASVGDRVTITCRASQDVSTAVAWYQQKPGKAPKLLIYSASFLYSGVPSRFSGSGSGTDFTLTISSLQPEDFATTYYCQQSYTGTVTFGQGTKVEIKR
notes: DVD-Ig, outer AB071 / inner AB015; HC linker long, LC linker long; also called DVD474H; DVD474L
By EC50 is commonly meant the concentration needed to bring the measured effect to its halfway point. Higher therefore signals a need for much substance. B4 showed an EC50 in test [2] of 17.9 nM.

B5: DVD467 (bispecific antibody, IgG1)
VH: EVQLVESGGGLVQPGGSLRLSCAASGFTFTDNWISWVRQAPGKGLEWVGYISPNSGFTYYADSVKGRFTISADTSKNTAYLQMNSLRAEDTAVYYCARDNFGGYFDYWGQGTLVTVSSASTKGPEVQLVESGGGLVQPGGSLRLSCAASGFTINASWIHWVRQAPGKGLEWVGAIYPYSGYTNYADSVKGRFTISADTSKNTAYLQMNSLRAEDTAVYYCARWGHSTSPWAMDYWGQGTLVTVSS
VL: DIQMTQSPSSLSASVGDRVTITCRASQDVSTAVAWYQQKPGKAPKLLIYSASFLYSGVPSRFSGSGSGTDFTLTISSLQPEDFATTYYCQQSYTGTVTFGQGTKVEIKRTVAAPDIQMTQSPSSLSASVGDRVTITCRASQVIRRSLAWYQQKPGKAPKLLIYAASNLASGVPSRFSGSGSGTDFTLTISSLQPEDFATYYCQQSNTSPLTFGQGTKVEIKR
notes: DVD-Ig, outer AB015 / inner AB071; HC linker short, LC linker short; also called DVD467H; DVD467L
In turn, B5 gave an EC50 in test [2] of 1810 nM.

B6: DVD485 (bispecific antibody, IgG1)
VH: EVQLVESGGGLVQPGGSLRLSCAASGFTFTDNWISWVRQAPGKGLEWVGYISPNSGFTYYADSVKGRFTISADTSKNTAYLQMNSLRAEDTAVYYCARDNFGGYFDYWGQGTLVTVSSASTKGPEVQLVESGGGLVQPGGSLRLSCAASGFTINASWIHWVRQAPGKGLEWVGAIYPYSGYTNYADSVKGRFTISADTSKNTAYLQMNSLRAEDTAVYYCARWGHSTSPWAMDYWGQGTLVTVSS
VL: DIQMTQSPSSLSASVGDRVTITCRASQDVSTAVAWYQQKPGKAPKLLIYSASFLYSGVPSRFSGSGSGTDFTLTISSLQPEDFATTYYCQQSYTGTVTFGQGTKVEIKRTVAAPSVFIFPPDIQMTQSPSSLSASVGDRVTITCRASQVIRRSLAWYQQKPGKAPKLLIYAASNLASGVPSRFSGSGSGTDFTLTISSLQPEDFATYYCQQSNTSPLTFGQGTKVEIKR
notes: DVD-Ig, outer AB015 / inner AB071; HC linker short, LC linker long; also called DVD485H; DVD485L
In turn, B6 showed an EC50 in test [2] of 121 nM.

B7: DVD479 (bispecific antibody, IgG1)
VH: EVQLVESGGGLVQPGGSLRLSCAASGFTFTDNWISWVRQAPGKGLEWVGYISPNSGFTYYADSVKGRFTISADTSKNTAYLQMNSLRAEDTAVYYCARDNFGGYFDYWGQGTLVTVSSASTKGPSVFPLAPEVQLVESGGGLVQPGGSLRLSCAASGFTINASWIHWVRQAPGKGLEWVGAIYPYSGYTNYADSVKGRFTISADTSKNTAYLQMNSLRAEDTAVYYCARWGHSTSPWAMDYWGQGTLVTVSS
VL: DIQMTQSPSSLSASVGDRVTITCRASQDVSTAVAWYQQKPGKAPKLLIYSASFLYSGVPSRFSGSGSGTDFTLTISSLQPEDFATTYYCQQSYTGTVTFGQGTKVEIKRTVAAPDIQMTQSPSSLSASVGDRVTITCRASQVIRRSLAWYQQKPGKAPKLLIYAASNLASGVPSRFSGSGSGTDFTLTISSLQPEDFATYYCQQSNTSPLTFGQGTKVEIKR
notes: DVD-Ig, outer AB015 / inner AB071; HC linker long, LC linker short; also called DVD479H; DVD479L
For B7, the EC50 in test [2] is 456 nM.

B8: DVD468 (bispecific antibody, human IgG1, kappa)
heavy: not shown
light: DIQMTQSPSSLSASVGDRVTITCRASQVIRRSLAWYQQKPGKAPKLLIYAASNLASGVPSRFSGSGSGTDFTLTISSLQPEDFATYYCQQSNTSPLTFGQGTKVEIKRTVAAPDIQMTQSPSSLSASVGDRVTITCRASQDVSTAVAWYQQKPGKAPKLLIYSASFLYSGVPSRFSGSGSGTDFTLTISSLQPEDFATTYYCQQSYTGTVTFGQGTKVEIKRTVAAPSVFIFPPSDEQLKSGTASVVCLLNNFYPREAKVQWKVDNALQSGNSQESVTEQDSKDSTYSLSSTLTLSKADYEKHKVYACEVTHQGLSSPVTKSFNRGEC
notes: DVD-Ig; N-term; VD VEGF (AB071), C-term; VD DLL4 (AB015); HC linker short, LC linker short; also called DVD-Ig DVD468; DVD468H
In test [1], B8 gave a Kd of 3.76 nM, a koff of 0.000219 s⁻¹ and a kon of 58200 M⁻¹ s⁻¹.

B9: DVD468 (bispecific antibody, IgG1)
VH: EVQLVESGGGLVQPGGSLRLSCAASGFTINASWIHWVRQAPGKGLEWVGAIYPYSGYTNYADSVKGRFTISADTSKNTAYLQMNSLRAEDTAVYYCARWGHSTSPWAMDYWGQGTLVTVSSASTKGPEVQLVESGGGLVQPGGSLRLSCAASGFTFTDNWISWVRQAPGKGLEWVGYISPNSGFTYYADSVKGRFTISADTSKNTAYLQMNSLRAEDTAVYYCARDNFGGYFDYWGQGTLVTVSS
VL: DIQMTQSPSSLSASVGDRVTITCRASQVIRRSLAWYQQKPGKAPKLLIYAASNLASGVPSRFSGSGSGTDFTLTISSLQPEDFATYYCQQSNTSPLTFGQGTKVEIKRTVAAPDIQMTQSPSSLSASVGDRVTITCRASQDVSTAVAWYQQKPGKAPKLLIYSASFLYSGVPSRFSGSGSGTDFTLTISSLQPEDFATTYYCQQSYTGTVTFGQGTKVEIKR
notes: DVD-Ig, outer AB071 / inner AB015; HC linker short, LC linker short; also called DVD468H; DVD468L
B9: the EC50 in test [2] stood at 25.6 nM. This lies in the double-digit nanomolar range.

B10: DVD486 (bispecific antibody, IgG1)
VH: EVQLVESGGGLVQPGGSLRLSCAASGFTINASWIHWVRQAPGKGLEWVGAIYPYSGYTNYADSVKGRFTISADTSKNTAYLQMNSLRAEDTAVYYCARWGHSTSPWAMDYWGQGTLVTVSSASTKGPEVQLVESGGGLVQPGGSLRLSCAASGFTFTDNWISWVRQAPGKGLEWVGYISPNSGFTYYADSVKGRFTISADTSKNTAYLQMNSLRAEDTAVYYCARDNFGGYFDYWGQGTLVTVSS
VL: DIQMTQSPSSLSASVGDRVTITCRASQVIRRSLAWYQQKPGKAPKLLIYAASNLASGVPSRFSGSGSGTDFTLTISSLQPEDFATYYCQQSNTSPLTFGQGTKVEIKRTVAAPSVFIFPPDIQMTQSPSSLSASVGDRVTITCRASQDVSTAVAWYQQKPGKAPKLLIYSASFLYSGVPSRFSGSGSGTDFTLTISSLQPEDFATTYYCQQSYTGTVTFGQGTKVEIKR
notes: DVD-Ig, outer AB071 / inner AB015; HC linker short, LC linker long; also called DVD486H; DVD486L
For the molecule B10, the EC50 in test [2] came out at 28 nM.

B11: DVD480 (bispecific antibody, IgG1)
VH: EVQLVESGGGLVQPGGSLRLSCAASGFTINASWIHWVRQAPGKGLEWVGAIYPYSGYTNYADSVKGRFTISADTSKNTAYLQMNSLRAEDTAVYYCARWGHSTSPWAMDYWGQGTLVTVSSASTKGPSVFPLAPEVQLVESGGGLVQPGGSLRLSCAASGFTFTDNWISWVRQAPGKGLEWVGYISPNSGFTYYADSVKGRFTISADTSKNTAYLQMNSLRAEDTAVYYCARDNFGGYFDYWGQGTLVTVSS
VL: DIQMTQSPSSLSASVGDRVTITCRASQVIRRSLAWYQQKPGKAPKLLIYAASNLASGVPSRFSGSGSGTDFTLTISSLQPEDFATYYCQQSNTSPLTFGQGTKVEIKRTVAAPDIQMTQSPSSLSASVGDRVTITCRASQDVSTAVAWYQQKPGKAPKLLIYSASFLYSGVPSRFSGSGSGTDFTLTISSLQPEDFATTYYCQQSYTGTVTFGQGTKVEIKR
notes: DVD-Ig, outer AB071 / inner AB015; HC linker long, LC linker short; also called DVD480H; DVD480L
Molecule B11 came in with an EC50 in test [2] of 23 nM.

B12: DVD473 (bispecific antibody, IgG1)
VH: EVQLVESGGGLVQPGGSLRLSCAASGFTFTDNWISWVRQAPGKGLEWVGYISPNSGFTYYADSVKGRFTISADTSKNTAYLQMNSLRAEDTAVYYCARDNFGGYFDYWGQGTLVTVSSASTKGPSVFPLAPEVQLVESGGGLVQPGGSLRLSCAASGFTINASWIHWVRQAPGKGLEWVGAIYPYSGYTNYADSVKGRFTISADTSKNTAYLQMNSLRAEDTAVYYCARWGHSTSPWAMDYWGQGTLVTVSS
VL: DIQMTQSPSSLSASVGDRVTITCRASQDVSTAVAWYQQKPGKAPKLLIYSASFLYSGVPSRFSGSGSGTDFTLTISSLQPEDFATTYYCQQSYTGTVTFGQGTKVEIKRTVAAPSVFIFPPDIQMTQSPSSLSASVGDRVTITCRASQVIRRSLAWYQQKPGKAPKLLIYAASNLASGVPSRFSGSGSGTDFTLTISSLQPEDFATYYCQQSNTSPLTFGQGTKVEIKR
notes: DVD-Ig, outer AB015 / inner AB071; HC linker long, LC linker long; also called DVD473H; DVD473L
Consider B12, for which the EC50 in test [2] is 388 nM.

The values above are taken from patent publication US20100260668A1 (published 2010).
